Like-named read-outs stand apart in the source and are kept apart here. Positions of bridges follow the written chain, without caps; N, C: chain ends. Residues, ends and D or L forms follow the SMILES beside them. No end group written: not given here.
How the values were obtained:
SARS-CoV-2 [1] = experiment: microbe, parasite or virus in culture; details: Severe acute respiratory syndrome coronavirus 2, Vero C1008, read-out: IC50 Compound
SARS-CoV-2 [2] = test system: SARS-CoV-2
viral proteins = experiment: BIACORE surface plasmon resonance interaction, all proteins evaluated; type: binding
SARS-CoV-2 [3] = details: 96 h, 100 μM
SARS-CoV-2 [4] = test system: SARS-CoV-2; remark: listed apart in the source
[5] = molecular target: T1, Dengue 2 virus capsid protein (Dengue virus 2), P29990; experiment: SPR (BIACORE)
T1 chain: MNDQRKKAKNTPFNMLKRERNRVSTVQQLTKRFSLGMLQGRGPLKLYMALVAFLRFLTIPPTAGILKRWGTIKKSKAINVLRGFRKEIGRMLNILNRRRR

[6] = molecular target: T2, envelope protein of the Zika virus (ZIKV E) (Zika virus), Q32ZE1; experiment: SPR (BIACORE)
T2 chain: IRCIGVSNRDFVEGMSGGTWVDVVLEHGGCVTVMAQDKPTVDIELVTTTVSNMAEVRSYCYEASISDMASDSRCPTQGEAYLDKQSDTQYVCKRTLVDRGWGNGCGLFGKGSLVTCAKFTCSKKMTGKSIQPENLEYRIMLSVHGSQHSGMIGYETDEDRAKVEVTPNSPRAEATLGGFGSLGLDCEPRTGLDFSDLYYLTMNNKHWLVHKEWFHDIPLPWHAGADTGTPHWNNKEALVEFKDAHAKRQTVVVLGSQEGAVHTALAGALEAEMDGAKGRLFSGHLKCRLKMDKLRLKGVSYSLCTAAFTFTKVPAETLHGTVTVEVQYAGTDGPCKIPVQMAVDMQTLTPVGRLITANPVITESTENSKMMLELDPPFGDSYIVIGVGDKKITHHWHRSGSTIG

[7] = molecular target: T3, nucleocapsid protein of the SARS-CoV-2 virus (N protein) (SARS-CoV-2), P0DTC9; experiment: SPR (BIACORE)
[8] = molecular target: T3, nucleocapsid protein of the SARS-CoV-2 …
[9] = molecular target: T4, non-structural protein 1 of the Dengue virus 2 (NS1-D2) (Dengue virus 2), P29990
T4 chain: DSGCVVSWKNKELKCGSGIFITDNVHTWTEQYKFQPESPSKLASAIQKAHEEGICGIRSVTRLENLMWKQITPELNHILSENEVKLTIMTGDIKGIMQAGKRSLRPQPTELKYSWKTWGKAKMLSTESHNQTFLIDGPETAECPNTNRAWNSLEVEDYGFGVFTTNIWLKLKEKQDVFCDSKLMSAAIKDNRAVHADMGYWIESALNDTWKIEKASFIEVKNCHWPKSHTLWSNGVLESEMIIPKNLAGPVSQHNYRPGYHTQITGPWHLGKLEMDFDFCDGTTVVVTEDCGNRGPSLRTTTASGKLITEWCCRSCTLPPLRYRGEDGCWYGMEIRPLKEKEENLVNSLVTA

[10] = molecular target: T1, Dengue 2 virus capsid protein (Dengue …)
[11] = molecular target: T2, envelope protein of the Zika virus …
[12] = molecular target: T1, Dengue 2 virus capsid protein (Dengue …); experiment: SPR (BIACORE); Peptide SEQ ID NO: 1
[13] = molecular target: T3, nucleocapsid protein of the SARS-CoV-2 …; experiment: SPR (BIACORE); Peptide SEQ ID NO: 1
[14] = molecular target: T1, Dengue 2 virus capsid protein (Dengue …); experiment: SPR (BIACORE); Peptide SEQ ID NO: 2
[15] = molecular target: T3, nucleocapsid protein of the SARS-CoV-2 …; experiment: SPR (BIACORE); Peptide SEQ ID NO: 2

Molecule: NC(=O)c1nc(F)c[nH]c1=O [Favipiravir]
- IC50 (SARS-CoV-2 [1]): 65300 nM

Molecule: RVTQMNLNDRLASLADKV [SEQ ID NO: 22]
- inhibition of SARS-CoV-2 in primary cultures of human airway epithelium (SARS-CoV-2 [2]): ≤ 20%
- interaction with the proteins evaluated (viral proteins): did not interact
- Inhibition % (SARS-CoV-2 [3]): 20.2%

Molecule: CCC(CC)COC(=O)[C@H](C)N[P@](=O)(OC[C@H]1O[C@@](C#N)(c2ccc3c(N)ncnn23)[C@H](O)[C@@H]1O)Oc1ccccc1 [Remdisivir]
- IC50 (SARS-CoV-2 [1]): 2400 nM

Molecule: N=C(N)c1ccc2cc(OC(=O)c3ccc(N=C(N)N)cc3)ccc2c1 [Nafamostat]
- IC50 (SARS-CoV-2 [1]): 20100 nM

Molecule: NC(=O)c1ncn([C@@H]2O[C@H](CO)[C@@H](O)[C@H]2O)n1 [Ribavirin]
- IC50 (SARS-CoV-2 [1]): 40200 nM

Molecule: CSCC[C@@H]1NC(=O)[C@H](Cc2c[nH]c3ccccc23)NC(=O)[C@@H](NC(=O)[C@H](C)NC(=O)[C@H](CCC(N)=O)NC(=O)[C@@H]2CCCN2C(=O)[C@@H]2CCCN2C(=O)[C@H](CCCNC(=N)N)NC(=O)[C@H](CCCNC(=N)N)NC(=O)[C@H](CCCNC(=N)N)NC(=O)[C@H](CCC(N)=O)NC(=O)[C@H](CCCNC(=N)N)NC(=O)[C@H](CCCNC(=N)N)NC(=O)[C@H](CCCCN)NC(=O)[C@H](CCCCN)NC(=O)[C@H](CCCNC(=N)N)NC(=O)CN)CSSC[C@@H](C(=O)O)NC(=O)[C@H]([C@@H](C)O)NC(=O)CNC(=O)[C@H](CC(C)C)NC(=O)[C@H](Cc2c[nH]cn2)NC(=O)[C@H](CCCNC(=N)N)NC(=O)[C@@H]2CCCN2C(=O)[C@H](CO)NC1=O [Peptide SEQ ID NO: 23] (H-GRKKRRQRRRPPQACWMSPRHLGTC-OH; disulfide 15-25; N-terminus and C-terminus assumed)
- IC50 (SARS-CoV-2 [4]): 3800 nM

Molecule: NLNDRLASLYDKV (modifications not checked) [Peptide SEQ ID NO: 15]
- Kd [5]: 1270 nM
- Kd [6]: 62.4 nM
- Kd [7]: 7820 nM

Molecule: RVTQMNLNDRLASLYDKV (modifications not checked) [peptide identified in the Sequence Listing as SEQ ID NO: 1]
- Kd [8]: 3.58 nM
- koff [8]: 0.000972 s⁻¹
- kon [8]: 271000 M⁻¹ s⁻¹
- Kd [9]: 769 nM
- koff [9]: 1.02e-05 s⁻¹
- Kd [10]: 1.67 nM
- koff [10]: 0.000413 s⁻¹
- kon [10]: 247000 M⁻¹ s⁻¹
- Kd [11]: 1590 nM
- koff [11]: 0.00154 s⁻¹
- kon [11]: 965 M⁻¹ s⁻¹
- Kd [12]: 1.67 nM
- Kd [13]: 3.58 nM
- Kd [6]: 1590 nM

Molecule: NDRLASLYDKV (modifications not checked) [Peptide SEQ ID NO: 14]
- Kd [5]: 5910 nM
- Kd [6]: 3200 nM
- Kd [7]: 1140 nM

Molecule: RVTQMNLNDRLASLYDKV (modifications not checked) [Peptide SEQ ID NO: 2]
- Kd [14]: 754 nM
- Kd [15]: 523 nM
- Kd [6]: 18200 nM
